# Experimental data: publication PMC9410543, “Nonlytic cellular release of hepatitis A virus requires dual capsid recruitment of the ESCRT-associated Bro1 domain proteins HD-PTP and ALIX” (PLoS Pathogens, 2022)
# T1: 6XHis-tagged ALIX Bro1 protein (residues 1–392) (UniProt Q8WUM4 1-392)
# T1 construct: Bro1 domain of ALIX, residues 1-392; also called recombinant ALIX Bro1; recombinant Bro1; source: E. coli, recombinant
# T1 sequence (looked up): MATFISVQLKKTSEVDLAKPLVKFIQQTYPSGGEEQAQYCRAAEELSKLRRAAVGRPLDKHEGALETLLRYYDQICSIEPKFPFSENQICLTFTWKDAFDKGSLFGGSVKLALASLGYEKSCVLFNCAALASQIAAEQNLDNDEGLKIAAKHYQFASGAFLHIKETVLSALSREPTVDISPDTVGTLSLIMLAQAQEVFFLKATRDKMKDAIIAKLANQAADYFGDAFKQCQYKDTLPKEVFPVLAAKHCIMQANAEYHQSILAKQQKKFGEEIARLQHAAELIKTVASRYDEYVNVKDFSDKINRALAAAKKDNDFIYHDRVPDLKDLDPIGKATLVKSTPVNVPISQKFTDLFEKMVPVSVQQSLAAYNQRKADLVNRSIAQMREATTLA
# Target: T1, 6XHis-tagged ALIX Bro1 protein …
# Assay: pull-down
# Conditions: both partners purified
binder,measurement,value
"KKKEEEDDDMKELENWAGSM (peptide, UniProt Q9H444 205-224, looked up, also called CHMP4 peptide; source: synthetic peptide) [peptide representing the C-terminal 20 residues of CHMP4B]",binding result,binds
